Patent US20050138692A1
“And” between values parts separate entries of the source, which are not always exact repeats. Identical values can stand only once.

Target: native Ag GA733-2 on colorectal carcinoma cell line SW948 (human) (UniProt P16422)
Assay: cell ELISA on fixed SW948 cells, antibody at 0.93 ug/ml

Chain of UniProt P16422 (P16422 24-314): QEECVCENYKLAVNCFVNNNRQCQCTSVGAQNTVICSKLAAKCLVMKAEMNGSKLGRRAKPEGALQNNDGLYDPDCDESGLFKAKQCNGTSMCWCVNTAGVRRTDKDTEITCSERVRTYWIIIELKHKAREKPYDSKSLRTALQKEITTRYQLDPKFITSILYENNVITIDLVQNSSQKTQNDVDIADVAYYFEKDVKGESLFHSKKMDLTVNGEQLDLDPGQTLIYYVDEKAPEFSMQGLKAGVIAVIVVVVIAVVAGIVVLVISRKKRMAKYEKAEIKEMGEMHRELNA

absorbance (absorbance (OD)): 0.933 and 0.896
Substance: MAb CO17-1A purified from the hybridoma supernatant (antibody)
